Measured values reported in IntAct's records for PubMed 19250911.

B1: Next to BRCA1 gene 1 protein (Homo sapiens), Q14596 (parent)
chain: MEPQVTLNVTFKNEIQSFLVSDPENTTWADIEAMVKVSFDLNTIQIKYLDEENEEVSINSQGEYEEALKMAVKQGNQLQMQVHEGHHVVDEAPPPVVGAKRLAARAGKKPLAHYSSLVRVLGSDMKTPEDPAVQSFPLVPCDTDQPQDKPPDWFTSYLETFREQVVNETVEKLEQKLHEKLVLQNPSLGSCPSEVSMPTSEETLFLPENQFSWHIACNNCQRRIVGVRYQCSLCPSYNICEDCEAGPYGHDTNHVLLKLRRPVVGSSEPFCHSKYSTPRLPAALEQVRLQKQVDKNFLKAEKQRLRAEKKQRKAEVKELKKQLKLHRKIHLWNSIHGLQSPKSPLGRPESLLQSNTLMLPLQPCTSVMPMLSAAFVDENLPDGTHLQPGTKFIKHWRMKNTGNVKWSADTKLKFMWGNLTLASTEKKDVLVPCLKAGHVGVVSVEFIAPALEGTYTSHWRLSHKGQQFGPRVWCSIIVDPFPSEESPDNIEKGMISSSKTDDLTCQQEETFLLAKEERQLGEVTEQTEGTAACIPQKAKNVASERELYIPSVDLLTAQDLLSFELLDINIVQELERVPHNTPVDVTPCMSPLPHDSPLIEKPGLGQIEEENEGAGFKALPDSMVSVKRKAENIASVEEAEEDLSGTQFVCETVIRSLTLDAAPDHNPPCRQKSLQMTFALPEGPLGNEKEEIIHIAEEEAVMEEEEDEEDEEEEDELKDEVQSQSSASSEDYIIILPECFDTSRPLGDSMYSSALSQPGLERGAEGKPGVEAGQEPAEAGERLPGGENQPQEHSISDILTTSQTLETVPLIPEVVELPPSLPRSSPCVHHHGSPGVDLPVTIPEVSSVPDQIRGEPRGSSGLVNSRQKSYDHSRHHHGSSIAGGLVKGALSVAASAYKALFAGPPVTAQPIISEDQTAALMAHLFEMGFCDRQLNLRLLKKHNYNILQVVTELLQLNNNDWYSQRY
B2: Next to BRCA1 gene 1 protein (Homo sapiens), Q14596 (parent)
chain: B1 chain
partner: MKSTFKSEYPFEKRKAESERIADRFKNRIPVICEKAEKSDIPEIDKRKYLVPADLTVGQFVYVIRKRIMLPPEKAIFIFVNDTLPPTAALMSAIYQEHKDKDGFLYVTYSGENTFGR

Experiments:
[1] = variants of: B1; conditions: with gbrap_human GABARAP
[2] = variants of: B1; conditions: with gbrl2_human GABARAPL2, P60520
gbrl2_human GABARAPL2, P60520, sequence (P60520 whole entry): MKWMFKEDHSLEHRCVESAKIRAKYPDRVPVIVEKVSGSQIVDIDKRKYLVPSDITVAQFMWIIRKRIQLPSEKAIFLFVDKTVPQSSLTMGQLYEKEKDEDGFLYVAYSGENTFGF

[3] = variants of: B1; conditions: with mlp3b_human MAP1LC3B
atg8_yeast ATG8, P38182 = variants of: B2; conditions: with atg8_yeast ATG8, P38182

| effect of a mutation on the interaction [1] | effect of a mutation on the interaction [2] | effect of a mutation on the interaction [3] | effect of a mutation on the interaction (atg8_yeast ATG8, P38182) | Variant |
| --- | --- | --- | --- | --- |
| decreasing interaction | decreasing interaction | decreasing interaction |  | Y732A |
|  |  |  | decreasing interaction | Y732A |
